We go through three substances from paper PMC9820295.

The target in data set [1] is DgDps1 (Dgeo_0281) (Deinococcus geothermalis) (UniProt Q1J1Q0). Description: SEC; HiLoad 16/600 Superdex 75 prep grade; 25 mM Tris-HCl pH 7.5, 150 mM NaCl; size markers ferritin 440 kDa, conalbumin 75 kDa, ovalbumin 43 kDa, anhydrase 29 kDa; also run with 1 mM Fe2+ or Fe3+. For orientation: In gel filtration, larger molecules generally elute earlier.
The test system of data set [2] is DgDps1 (Dgeo_0281) (Deinococcus geothermalis). The data set can be described thus: EMSA. Conditions: EMSA 1x (from 5x stock): 20 mM HEPES pH 7.2, 32 mM KCl, 0.1 mM EDTA, 10% glycerol, 70 ng/uL BSA, 8 ng/uL poly(dI-dC), 2.5 mM DTT; 37 C 30 min; 6% native PAGE …. On the technique in general: In EMSA bound probe runs differently from free probe, usually more slowly.
In data set [3] the test system is Dgeo_0257 (putative Dps, DgDps3) (Deinococcus geothermalis). The data set can be described thus: EMSA. The conditions noted are these: no added metal; half-maximal shift, fragment not specified; EMSA 1x (from 5x stock): 20 mM HEPES pH 7.2, 32 mM KCl, 0.1 mM EDTA, 10% glycerol, 70 ng/uL BSA, 8 ng/uL poly(dI-dC), 2.5 mM DTT; 37 C 30 min; 6% native PAGE ….

As to “DgDps1 (Dgeo_0281) (from UniProt Q1J1Q0 1-222) (natural protein)”, in data set [1], the stoichiometry N (commonly the number of molecules, sites or subunits per partner or assembly) is 2. Regarding Dgeo_2112 ORF region, the figures for the Kd in data set [2] and in data set [3] were greater than 40 µM and less than 4 µM, respectively. On the same counts, the results for Dgeo_2112 promoter region are greater than 40 µM and less than 4 µM.
